According to paper PMC7472637:

Experiments:
Experiment in all cases: in vivo oligomerization (SDS-PAGE of cell lysates ± DTT, anti-FLAG Western blot)
[1] = biological target: HapR-R37E, C-terminal FLAG-tagged (Vibrio cholerae)
[2] = biological target: HapR-R37A, C-terminal FLAG-tagged (Vibrio cholerae)
[3] = biological target: HapR-R37D, C-terminal FLAG-tagged (Vibrio cholerae)
[4] = biological target: HapR, wild type, C-terminal FLAG-tagged (Vibrio cholerae)
[5] = biological target: HapR-R37H, C-terminal FLAG-tagged (Vibrio cholerae)

Substance: HapR-R37E, C-terminal FLAG-tagged (natural protein)
- stoichiometry N [1]: 2

Substance: HapR-R37A, C-terminal FLAG-tagged (natural protein)
- stoichiometry N [2]: 2

Substance: HapR-R37D, C-terminal FLAG-tagged (natural protein)
- stoichiometry N [3]: 2

Substance: HapR, wild type, C-terminal FLAG-tagged (natural protein)
- stoichiometry N [4]: 2

Substance: HapR-R37H, C-terminal FLAG-tagged (natural protein)
- stoichiometry N [5]: 2
